Measured values as given in the supplement of paper PMC12455559.

What was measured:
[1] = purified protein yield per well (BCA); higher = higher soluble expression
Outline: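 Candidate enzymes were expressed in E. coli C41(DE3) in 2 mL autoinduction cultures with 100 µg/mL kanamycin, at 37 °C for 2 h and then 18 °C for 40 h. Cells were lysed, and protein was bound to Ni-charged magnetic beads and released by SUMO protease cleavage on an OT-2 robot. The read-out is purified protein yield per well, measured with the Pierce Rapid Gold BCA kit. Values below 25 ug (0.1 mg/mL) are below the detection threshold.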

[2] = PET hydrolysis, aromatic products released after 48 h (umol product/mg enzyme); higher = more PET depolymerization activity; settings: substrate: cryPow
Experimental: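 HTP-purified, SUMO-cleaved, tagless PET hydrolase candidates (5 ug, 1.43 mg/g PET) were incubated 48 h without shaking with 3.5 mg amorphous PET film (aFilm) or crystalline PET powder (cryPow) in 0.5 mL buffer: NaCitrate pH 4.5/5.5, NaPhosphate pH 6.5/7.5, glycine pH 8.5. Incubation was at 40 or 60 C. Aromatic products (TPA, MHET, BHET) in the supernatant were quantified by UV absorbance at 260/280 nm relative to buffer blanks and expressed per mg enzyme. LCC-ICCG was the positive control on every plate.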

Sequence | purified protein yield per well [1] | PET hydrolysis ([2]; 40 °C, pH 4.5) | PET hydrolysis ([2]; 40 °C, pH 5.5) | PET hydrolysis ([2]; 40 °C, pH 6.5) | PET hydrolysis ([2]; 40 °C, pH 7.5) | PET hydrolysis ([2]; 60 °C, pH 4.5) | PET hydrolysis ([2]; 60 °C, pH 5.5) | PET hydrolysis ([2]; 60 °C, pH 6.5) | PET hydrolysis ([2]; 60 °C, pH 7.5) | PET hydrolysis ([2]; 40 °C, pH 8.5) | PET hydrolysis ([2]; 60 °C, pH 8.5)
AETTTQHGPDPTEGSITAPTGPFQTDQKTVPRSSVQGFGGGTIYYPTETSQGTFGAVTIAPGYTAGKESLAWLGPRLASQGFVVFTIDTITTSDQPDSRAKQLMASLDYLTGDSDVRDRIDTSRLAVMGHSMGGGGTLEAARDNRNLKAAIPMTPWDTTKDFSGVQTPTLIIGAQNDTIAPVAQHAKPFYGSLPDDPGKAYLELAGASHFAPNQDNTTIAKSSIAWLKRFVDDDTRYDQFLCPPPQDAEISDYQSTCPY [TEP037] | 77 µg | < 3 | 5 | < 3 | < 3 | < 3 | < 3 | < 3 | < 3 |  | 
SNPTPTPTPTPTPTPTPGNNPFQRGPNPTLSFIEANSGPYSVRTSRVSSYTSGFGGGTIHYPTGQSGTMGAIVVIPGFVSAESSIEWWGPKLASHGFVVMTIDTNSGFDQPPSRARQINAALDYLVAQNRSSRSPVRGMIDTNRLGVVGWSMGGGGTLRVASEGRIKAAIPLAPWDTTSFRNVKAPTLIFACESDVIAPVGQHASPFYNELPSNISKAFVELNGGSHYCGNGGNSYNDVLSRFGVSWMKRFLDNDTRYSQFLCGPNHTSDRDISEYRGNCNY [ESM042] | 73.3 µg | < 3 | < 3 | < 3 | < 3 | < 3 | < 3 | < 3 | < 3 |  | 
DTNPFQRGPAPTEASVSAQKGPFATAQVNVPANSGEGFNDGTIYYPTDTSQGTFGAIAVMPGFLSPQDWIRWYGPTLASQGFVVMTLDSKGFIDSPTARGNQLLAALDYLTTKSKVVDRIDTSRLGVVGWSMGGGGALESTYNRPSLKADVALAPWHVGLDQSKITVPSLILADDNDWLAPTGSFAKPFYAGIPESTNKAFIELKNANHFTFTGYNKNIAKYAVSWLKRFVDDDTRYDQFLCPKPATNNEISQSEETCPLH [DP054] | 39 µg |  | 5 | 7 | < 3 |  |  |  |  | < 3 | 
ATTAAAPAAAVRADSPYQRGPAPTEASVTAARGPFAIAQVTVPAGSGTGFNKGTIYYPTDTGQGTFGGVAVMPGFTSPQSVIQWLGPRLASQGFLVFTLDSLSLVDFPTARSQQLLAALDYLATRSTVRTRLDPNRLAVMGHSMGGGASLWAAQNRPSLKASVPLAPWETDTTWQGVRVPTMIIGGQADTVAPPATMAIPDYTSMTSAPEKAYLELRNGGHGAPATESPTVAKYALSWLKRFVDLDTRYDQFLCPAPAPTTAISQYRDTCPNG [DP058] | 52 µg |  | < 3 | < 3 | < 3 |  | < 3 | < 3 | < 3 | < 3 | < 3
MHPTPDRAKVLPVNVSRGPAEPPAARSARPGGRSAPDGLRPGRRRPVPSSEQGATDVQSHPPTPANRRTRTVATLALALTLVGGAGAIAPTAHAAAGHERGPNPTSAALEASRGPFSVSSTTVSSLSASGFGGGTIYYPNDTGQGTFGGVIVAPGFTASRSTMAWLAERLASHGFVVFNIDTITRSDQPDSRGRQLLAAADHLAEESSPAVRSRLDAGRIGVMGHSMGGGGTLAAAESRPSLQAAVPLTPWHTDKSWGSVQVPTMIIGAENDSVAPVSSHAEPFYNSLSSAQEKAYLELNGASHFAPNSSNSTLAKYSIAWMKRFVDDDLRYDQFLCPAPGRSTRIEEYRSSCPH [TEP081] | 35.7 µg | < 3 | < 3 | < 3 | < 3 |  |  |  |  |  | 
ADNPYERGPAPTNASIEAVRGPYAVSQATVSSLAVTGFGGGTIYYPTTTSDGTFGAVAISPGYTGTQSSIAWLGPRLASQGFVVFTIDTNTTLDQPDSRGRQLLAALDYLTRVSPLRTRVDSTRLGVMGHSMGGGGSLEAAKSRPSLQAAIPLTPWNLDKTWPEIQTPTLIVGADGDSIAPVSSHAEPFYENLPSSLDRAYLELNGASHFAPNSSNTTIAKYSISWLKRFIDNDTRYEQFLCPLPRPSLTIEEYRGNCPHQS [TEP188] | 72.2 µg | < 3 | < 3 | < 3 | < 3 | < 3 | < 3 | < 3 | < 3 |  | 
AAPAGPAALPARPLAAAPADSPYERGPAPTEASITAERGPFAIEKIDVPAGSGTGFNRGTIYAPTDTSQGTFGAIAVSPGFMSPQSVIDWYGPRLASQGFVVMTLETKSLLDAPAARGDQLLAALDYMTGKSKAKDRIDASRLAVMGHSMGGGGTLEAANKRASLQAAVPLAPWDTNYDWKNVQAPTMIMGADNDTIAPADSMAERYYGTLTAVPEKAYLELRNAGHTTFNAPNTTIAKYAIAWMKRFVDDDARYEQFLCPEPSPSTTIAQYEGTCPTG [TEP067] | 49.7 µg | 5 | 12 | 14 | < 3 |  |  |  |  |  | 
MPQQAQAGPGNPYERGPAPTEASVTAERGPFAVSQKAVPESADGRFNKGTVYYPTDTSQGTFGAVAISPGFVSPEAAVGWLGPRLASQGFVVMTLETNTPLDFPDQRADQLLGALDWLTTSSDVRERIDASRLAVAGHSMGGGASLRASEKRPTLQAAVPLTPWHTDKTWEKDPVPTLVVGAENDTVAPVAEHAEPFYSSLSAAPEKAYLELEGADHLAPVAPNVTVAKYAISWLKRYVDDDTRYEQFLCPPPRPSSTISEYRDTCPGS [TEP193] | 50.4 µg | < 3 | < 3 | < 3 | < 3 |  |  |  |  |  | 
GESPGAAVVAFAGHAKGPAPTEQSVRAQQGPFTTDKLVVPAQAGRGFNKGTIYYPDDTSQGTFGAVAVIPGFLEGESAISWLGPTLASHGFITLTLAPNATTDYPEPRSNQLLAAVDWLANQSPVKDRVDPNRLAVAGHSMGGGGTLIAASKNPALKAAVPLTPWNPHSNFSDVTVPTLIIGADRDFIAPTFMHASPMYNSLKAKQDQAYLKLKNADHFATNRYNATATAYTVSWLKRYVDEDTRYSQFLCPVKSGFQLTCPI [DP011] | 26 µg |  | < 3 | < 3 | < 3 |  |  |  |  | < 3 | 
DQIGQAPTASNITGDGSFAVTSSAVSGQTGFGGGTVYYPTQTGTYPVVAIMPGFLELWDAIKWMGPRLASWGYVVVGVNPNSVFDLPDSRGSQLLAALNWAVGSAPSAVQSRADGTRRGVVGYSMGGGGTLEALSRDTSGKVLAGVAFSPWDTNQNWSTVRQPEFIVGAQNDTVAPPAQHAIPFYNSLAGPKTYVELAGADHLWPTSDNPTGSRAMVSWLKRWLNSDSRFTPFTCGFTGSAISASMSNAC [ESM047] | 48.3 µg | 20 | 55 | 47 | 8 |  |  |  |  |  | 
YILASGFVGQLVAQTPSLEALGRQGPYQVAWYTQLPSVPEFSGATLYFPANKAQDFGGVVISPGFFERQENISWWGNYLASHGFAVITFDTNELRDLPPLRADALLATIDLLRGENSRQGSAVRGKILEDSMAVMGHSMGGAAALLLANENSNEIKAAIPFNAGGLRNANFSAVAVPTLVIAGEIDRLAPVNEHAWSHYQTLT [TEP088] | < 25 µg |  |  |  |  |  |  |  |  |  | 
AETSYENGPDPTSSSIEAVKGPFEVSTQTVSSYSVRDFGGGTIYYPASSVEGGYGAVAISPGYTARKSSIAWLGSRLASQGFVVFTIDTKTTSDRPASRGDQLLASLDYLTENSRIKDQVDPNRLAVMGHSMGGGGVFEAAKDRPELQGAIAMTPWNTNKTFSEVSTPTLIFGAQDDTVAPVSRHSIPLYSGLPSTTPRTYLELRGASHFAPNRSNTTIAAQSIAWLKAFLDEDRRYDQFLCPGPTTGIDLSDVRTSCPF [DP036] | < 25 µg |  |  |  |  |  |  |  |  |  | 
ADNPYQRGPDPTERSVTARRGPFAIDEISVNGGIGAGFNRGTIFYPTDRSQGTFGAVAVIPGFLSPESLVRWFGPRLASQGFVVMTLTTNGLTDTPESRSEQLLAALDYLTTRSQVRDRIDPSRLAVMGHSMGGGGSLAAAAKRPTLRAAIPLAPWSLTKNWSNLTVPTLIIGAENDNVAPVAGHSERFYDSMTNVPEKAYLEMAGGNHVDPTAESDLVAKFTISWLKRFVDDDTRYDQFLCPAPRPNRQISEYRDTCPHS [DP029] | < 25 µg |  |  |  |  |  |  |  |  |  | 
CAAQAQTSPPTSASLNATAGPLSVSTSSVSSWAARGFGGGTIYYPNATGRYGVVAISPGYTARQSSIAWLGRRLATHGFVVITIDTNSTLDQPPSRATQLMAALNHVVNNANATVRSRVDASKLAVAGHSMGGGGSLIAAENNPSLKAAYPLTPWSVSKNYSSVRVPTMIIGADGDSIASVSTHSRLFYNSLSSNVSKAYGELNNASHFTPNYTNTPIGRYAVTWMKRFVDNDTRYSPFLCGAPHDSYATRTVFDRYEDNCAY [ESM071] | < 25 µg |  |  |  |  |  |  |  |  |  | 
QDNPYERGPDPTESLIEASRGPFSVSQTSVSSLVSGFGGGTIYYPTSTSEGTFGAVAISPGFTATESSIAWMGPRLASHGFVVITIDTNTIYDQPSSRGDQLLAALDYMTEDNLTVRGRIDSSRLAVAGHSMGGGGSLEAASSRPALQAAVPLAPWNTDKSWSELRTPTLIIGGESDSIAPVATHSIPFYNSIPASAEKAYLELDNASHFFPQTPNTTQAKYMLSWLKRFVDNDTRYEQFLCPAPDDRDISDYRDTCPHA [TEP150] | < 25 µg |  |  |  |  |  |  |  |  |  | 
AAPVHHPVTRPAPAHHQPAAAAVDQIVVPAAADARFGGGTIFAPRGAGQKVLGSVVVTPGFHGRKSDMAVYGTELAAEGFVVFTIDTRDRADLPDQRATEMLAAADYLTGRSAVKGEVSPDRVALLGYSMGGGGTLQAAQERPSIKAALTLMPYDYPPAGDPKAVHPAYPELTVPTLIITGQKDATAIPAKFGKPAYDSIPAGTPKQYLQLTGLGHAAGMGKPTVAIRAAVTAFLERYLDGDTAYAKQICPAPKVGGPISASISSCPAG [ESM150] | < 25 µg |  |  |  |  |  |  |  |  |  | 
GPFAVSSVTVPAGSGPGFNDGTIYYPTDTSQGTFGAVVIMPGFVAVQGQIAWYGPRLASQGFVVMTMDSNALWDFPSDRSRQQLAALNYLTTKSPVKSRIDPNRLALMGWSMGGGGTLESAAANPSLKAAIPLAPWDITNPGDQISVPTMIFGADGDTVAPVSTFTRPAYDALTNTHDKAFVELKGADHFTFASPNTTVAKYSISWLKRFVDNDTRYDQFLCPIPN [TEP056] | < 25 µg |  |  |  |  |  |  |  |  |  | 
